{"source": "patent US20230091315A1", "about": "(CISBIO BIOASSAYS, published 2023)", "key": {"[1]": {"biological_target": "T1, human Gαq fused in its N-terminal part with the tags Twin-Strep-tag and FLAG, overexpressed in HEK293 cells (human, UniProt P50148 1-359)", "T1 construct": "not shown: N-terminal Twin-Strep-tag and FLAG tags", "T1 sequence (looked up)": "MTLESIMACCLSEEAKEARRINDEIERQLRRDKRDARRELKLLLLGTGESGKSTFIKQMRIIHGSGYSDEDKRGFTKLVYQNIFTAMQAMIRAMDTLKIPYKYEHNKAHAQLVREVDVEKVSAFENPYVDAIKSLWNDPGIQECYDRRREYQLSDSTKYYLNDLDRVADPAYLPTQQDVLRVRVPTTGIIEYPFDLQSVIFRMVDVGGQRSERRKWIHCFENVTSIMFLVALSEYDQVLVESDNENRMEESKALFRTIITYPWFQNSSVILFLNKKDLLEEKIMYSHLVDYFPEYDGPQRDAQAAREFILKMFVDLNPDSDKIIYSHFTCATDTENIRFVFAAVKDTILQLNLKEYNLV", "assay": "HTRF on HEK293 cells overexpressing the TST-Flag-tagged Gα: antibody-d2 (10 nM) + anti-Twin-Strep-tag-Lumi4 Tb, in buffer, GDP 10 µM or GTPγS 10 µM"}, "[2]": {"biological_target": "T2, human Gα12 fused in its N-terminal part with the tags Twin-Strep-tag and FLAG, overexpressed in HEK293 cells (human, UniProt Q03113 1-381)", "T2 construct": "not shown: N-terminal Twin-Strep-tag and FLAG tags", "T2 sequence (looked up)": "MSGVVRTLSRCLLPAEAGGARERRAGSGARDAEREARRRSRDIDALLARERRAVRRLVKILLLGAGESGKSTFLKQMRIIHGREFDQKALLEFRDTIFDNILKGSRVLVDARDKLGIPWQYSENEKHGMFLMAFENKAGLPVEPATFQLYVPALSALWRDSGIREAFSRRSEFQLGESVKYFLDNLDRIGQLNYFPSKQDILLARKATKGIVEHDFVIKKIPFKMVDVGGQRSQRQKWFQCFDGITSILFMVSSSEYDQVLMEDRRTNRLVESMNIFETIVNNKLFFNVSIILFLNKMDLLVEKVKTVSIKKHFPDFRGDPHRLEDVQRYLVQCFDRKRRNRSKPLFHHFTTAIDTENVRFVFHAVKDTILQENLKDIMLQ", "assay": "HTRF on HEK293 cells overexpressing the TST-Flag-tagged Gα: antibody-d2 (10 nM) + anti-Twin-Strep-tag-Lumi4 Tb, in buffer, GDP 10 µM or GTPγS 10 µM"}, "[3]": {"biological_target": "T3, human Gα13 fused in its N-terminal part with the tags Twin-Strep-tag and FLAG, overexpressed in HEK293 cells (human, UniProt Q14344 1-377)", "T3 construct": "not shown: N-terminal Twin-Strep-tag and FLAG tags", "T3 sequence (looked up)": "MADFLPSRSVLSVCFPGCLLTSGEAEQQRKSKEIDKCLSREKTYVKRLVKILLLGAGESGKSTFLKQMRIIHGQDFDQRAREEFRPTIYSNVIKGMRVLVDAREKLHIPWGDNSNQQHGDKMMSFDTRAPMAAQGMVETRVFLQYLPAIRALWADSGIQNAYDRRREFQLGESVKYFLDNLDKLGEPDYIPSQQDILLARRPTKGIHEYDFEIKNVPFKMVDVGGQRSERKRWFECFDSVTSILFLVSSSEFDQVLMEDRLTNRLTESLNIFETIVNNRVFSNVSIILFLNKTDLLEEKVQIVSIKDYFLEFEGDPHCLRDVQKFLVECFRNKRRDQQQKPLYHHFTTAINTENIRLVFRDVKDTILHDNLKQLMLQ", "assay": "HTRF on HEK293 cells overexpressing the TST-Flag-tagged Gα: antibody-d2 (10 nM) + anti-Twin-Strep-tag-Lumi4 Tb, in buffer, GDP 10 µM or GTPγS 10 µM"}, "[4]": {"biological_target": "T4, human Gαi2 fused in its N-terminal part with the tags Twin-Strep-tag and FLAG, overexpressed in HEK293 cells (human, UniProt P04899 1-355)", "T4 construct": "not shown: N-terminal Twin-Strep-tag and FLAG tags", "T4 sequence (P04899 whole entry, the tested form may be a part)": "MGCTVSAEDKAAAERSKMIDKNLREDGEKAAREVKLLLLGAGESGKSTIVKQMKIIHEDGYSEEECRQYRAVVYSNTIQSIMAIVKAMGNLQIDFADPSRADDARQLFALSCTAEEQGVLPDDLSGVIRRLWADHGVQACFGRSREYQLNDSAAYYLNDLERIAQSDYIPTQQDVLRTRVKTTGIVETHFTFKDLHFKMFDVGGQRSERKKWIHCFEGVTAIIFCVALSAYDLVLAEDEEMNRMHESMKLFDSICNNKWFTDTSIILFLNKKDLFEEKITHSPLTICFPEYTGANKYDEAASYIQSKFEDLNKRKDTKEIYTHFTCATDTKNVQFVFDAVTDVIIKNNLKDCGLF", "assay": "HTRF on HEK293 cells overexpressing the TST-Flag-tagged Gα: antibody-d2 (10 nM) + anti-Twin-Strep-tag-Lumi4 Tb (0.5 nM), in buffer, GDP 10 µM or GTPγS 10 µM"}, "[5]": {"biological_target": "T5, human Gαi3 fused in its N-terminal part with the tags Twin-Strep-tag and FLAG, overexpressed in HEK293 cells (human, UniProt P08754 1-354)", "T5 construct": "not shown: N-terminal Twin-Strep-tag and FLAG tags", "T5 sequence (P08754 whole entry, the tested form may be a part)": "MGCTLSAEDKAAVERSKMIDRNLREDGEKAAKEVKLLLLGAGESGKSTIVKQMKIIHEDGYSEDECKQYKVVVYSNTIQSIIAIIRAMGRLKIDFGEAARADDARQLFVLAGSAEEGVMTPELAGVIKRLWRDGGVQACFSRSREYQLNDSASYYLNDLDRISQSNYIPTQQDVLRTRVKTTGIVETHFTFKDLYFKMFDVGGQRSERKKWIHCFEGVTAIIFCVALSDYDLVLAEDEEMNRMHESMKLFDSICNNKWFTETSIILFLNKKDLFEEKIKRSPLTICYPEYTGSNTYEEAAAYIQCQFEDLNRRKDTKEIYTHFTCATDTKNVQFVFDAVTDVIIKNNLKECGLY", "assay": "HTRF on HEK293 cells overexpressing the TST-Flag-tagged Gα: antibody-d2 (10 nM) + anti-Twin-Strep-tag-Lumi4 Tb (0.5 nM), in buffer, GDP 10 µM or GTPγS 10 µM"}, "[6]": {"biological_target": "T6, human Gαz fused in its N-terminal part with the tags Twin-Strep-tag and FLAG, overexpressed in HEK293 cells (human, UniProt P19086 1-355)", "T6 construct": "not shown: N-terminal Twin-Strep-tag and FLAG tags", "T6 sequence (P19086 whole entry, the tested form may be a part)": "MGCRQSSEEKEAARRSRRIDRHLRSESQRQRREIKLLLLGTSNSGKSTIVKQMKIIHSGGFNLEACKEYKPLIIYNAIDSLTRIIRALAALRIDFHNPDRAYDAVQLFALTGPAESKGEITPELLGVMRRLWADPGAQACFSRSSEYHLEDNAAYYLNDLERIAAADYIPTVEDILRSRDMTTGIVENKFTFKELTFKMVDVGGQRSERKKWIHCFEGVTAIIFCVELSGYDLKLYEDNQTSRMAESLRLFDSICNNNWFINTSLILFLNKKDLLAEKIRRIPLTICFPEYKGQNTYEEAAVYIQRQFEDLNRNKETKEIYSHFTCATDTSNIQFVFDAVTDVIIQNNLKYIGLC", "assay": "HTRF on HEK293 cells overexpressing the TST-Flag-tagged Gα: antibody-d2 (10 nM) + anti-Twin-Strep-tag-Lumi4 Tb (0.5 nM), in buffer, GDP 10 µM or GTPγS 10 µM"}}, "data": [{"binder": "antibody DSV36S (antibody, V domains shown, Used unlabeled or labeled with d2 (acceptor) or Lumi4Tb (donor); also called DSV36S-d2; DSV36S-Lumi4Tb) VH: EVQLQQSGAELVRPGALVKLSCKASGFNIKDYYMHWVKQRPEQGLEWIGWIDPENGNTIYDPKFQGKASITADTSSNTAYLQLSSLTSEDTAVYYCTRGGGYYSDWYFDVWGAGTTVTVSS VL: QIVLTQSPAIMSASPGEKVTMTCSASSSVSYMHWYQQKSGTSPKRWIYDTSKLASGVPARFSGSGSGTSYSLTISSMEAEDAATYYCQQWSSNPPITFGAGTKLELK", "values": [{"measurement": "binding result", "setting": "[1]", "result": "no binding (tested: 10 nM)"}, {"measurement": "binding result", "setting": "[2]", "result": "no binding (tested: 10 nM)"}, {"measurement": "binding result", "setting": "[3]", "result": "no binding (tested: 10 nM)"}, {"measurement": "binding result", "setting": "[4]", "result": "binds"}, {"measurement": "binding result", "setting": "[5]", "result": "binds"}, {"measurement": "binding result", "setting": "[6]", "result": "binds"}]}]}
